The text below walks through data of paper PMC6079010.

For the test, the target named is catalytic domain of KAT2A (as crystallised, apo and with succinyl-CoA). Put plainly: crystal structure; apo (space group P4_(1)2_(1)2) and succinyl-CoA-complexed (P2_(1)3) crystals of the catalytic domain, grown at pH 4.6; octahedral assembly seen in both.

The stoichiometry N is a count of units in the complex or per binding partner. “catalytic domain of KAT2A (as crystallised, apo and with succinyl-CoA) (domain or fragment)” had a stoichiometry N of 24.
